Data on two variants can be found in IntAct's records for PubMed 16083881.

To fix the notation:
B1: Serine/threonine-protein phosphatase 5 (Mus musculus), Q60676 (parent)
chain: MAMAEGERTECAETPRDEPPADGTLKRAEELKTQANDYFKAKDYENAIKFYSQAIELNPGNAIYYGNRSLAYLRTECYGYALGDATRAIELDKKYIKGYYRRAASNMALGKFRAALRDYETVVKVKPNDKDAKMKYQECSKIVKQKAFERAIAGDEHRRSVVDSLDIESMTIEDEYSGPKLEDGKVTITFMKDLMQWYKDQKKLHRKCAYQILVQVKEVLCKLSTLVETTLKETEKITVCGDTHGQFYDLLNIFELNGLPSETNPYIFNGDFVDRGSFSVEVILTLFGFKLLYPDHFHLLRGNHETDNMNQIYGFEGEVKAKYTAQMYELFSEVFEWLPLAQCINGKVLIMHGGLFSEDGVTLDDIRKIERNRQPPDSGPMCDLLWSDPQPQNGRSVSKRGVSCQFGPDVTKAFLEENQLDYIIRSHEVKAEGYEVAHGGRCVTVFSAPNYCDQMGNKASYIHLQGSDLRPQFHQFTAVPHPNVKPMAYANTLLQLGMM
partner: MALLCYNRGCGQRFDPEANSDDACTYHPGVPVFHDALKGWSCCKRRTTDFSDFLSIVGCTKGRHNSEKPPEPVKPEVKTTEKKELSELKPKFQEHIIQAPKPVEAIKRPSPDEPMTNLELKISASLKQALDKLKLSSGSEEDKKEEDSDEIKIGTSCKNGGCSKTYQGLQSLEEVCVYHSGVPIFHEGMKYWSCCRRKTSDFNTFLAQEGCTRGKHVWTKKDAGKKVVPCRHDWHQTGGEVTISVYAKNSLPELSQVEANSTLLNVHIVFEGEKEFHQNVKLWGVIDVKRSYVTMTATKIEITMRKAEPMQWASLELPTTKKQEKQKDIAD

The first test covers variants of B1. The note with it: with chrd1_mouse Chordc1, Q9D1P4.
R101A: the “effect of a mutation on the interaction” value was “disrupting interaction”.

Another test covers variants of B1. The note with it: with chrd1_mouse Chordc1, Q9D1P4. This is another data set of the same source.
On to K32A, for which the “effect of a mutation on the interaction” value is recorded as “disrupting interaction”.
